Data on three molecules can be found in patent US20200239586A1 (LA TROBE UNIVERSITY, published 2020).

Read-outs that look alike come from different tables or passages of the source. Ends that are not written are not given here. * marks the point of attachment. Biotin = O=C1N[C@H]2[C@H](CS[C@H]2CCCCC(=O)*)N1

Test [1] addresses T1, human Fn14 (human, UniProt Q9NP84 28-129).
T1 sequence: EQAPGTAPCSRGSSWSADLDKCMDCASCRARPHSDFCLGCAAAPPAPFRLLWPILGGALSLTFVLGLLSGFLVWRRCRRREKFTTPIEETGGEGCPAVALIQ
The test can be described thus: cell-based or functional assay.

The target of test [2] is T1, human Fn14. The test can be described thus: cell-based or functional assay. This is another data set of the same source.
For test [3], the target named is T2, synthetic peptide hFn14 sub-domain 1p (human, biotin on the added C-terminal lysine).
T2 construct: synthesised by GLBiochem
T2 peptide: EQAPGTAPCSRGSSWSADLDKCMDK
The test can be described thus: ELISA on biotinylated synthetic peptide. The method, then: (§1) Peptides representing sub-domains 1p, 2 and 3 of hFn14 (FIG. 20, Panels B and C and FIG. 14, Panel A) and for disulfide pair mutants (Cys3&6ΔS and Cys4&5ΔS; FIG. 20 Panels D and E) were synthesized by GLBiochem Ltd. (Shanghai, China) and the cysteine residues for disulfide bonds were chosen as described in the solution structure by He et al., (2009). An additional lysine residue was added to the C-terminus in order to attach a biotin moiety and to enable the peptides to bind to neutravidin coated plates (Pre-blocked; Pierce). For these experiments, a control peptide with a biotin at the C-terminus was used as a negative control and isotype control antibodies were also used.
(§2) The ELISA was performed essentially according to the manufacturer's recommended protocol (Pierce). Briefly, peptide was coated onto wells (in duplicate) at 1-10 μg/ml for 2 hours at room temperature. Wells were washed in PBS/0.05% Tween 20/0.1% BSA 3 times and dilutions of each antibody were added in wash buffer for 1 hour with gentle agitation. After another three washes anti-mouse HRP-conjugated to horse radish peroxidase (HRP; Chemicon) was added at 1/1000 dilution for 1 hour shaking. Finally, after 4 further washes the plate was developed using TMB (3,3′,5,5′-tetramethylbenzidine) substrate (Pierce), and the reaction was stopped using 2M H2SO4 solution. Optical density at 450 nm was quantified using a Spectromax absorbance spectrophotometer.
On the technique in general: In an ELISA, binding on a coated surface is turned into a signal by an enzyme label.

Test [4] deals with T3, synthetic peptide hFn14 sub-domain 2 (human, biotin on the added C-terminal lysine; disulfide bonds as in the solution structure of He et al. 2009).
T3 construct: also called sub-domain 2 peptide
T3 peptide: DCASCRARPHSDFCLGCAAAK
In words: ELISA on biotinylated sub-domain 2 peptide, mAb at 5 ng/ml.
Description: FIG. 21B is a graphical representation showing reactivity of anti-Fn14 mAbs CRCBT-06-001, CRCBT-06-002, CRCBT-06-003, CRCBT-06-004, CRCBT-06-005, CRCBT-06-006, CRCBT-06-007 and ITEM-1 with a synthetic peptide representing sub-domain 2 of Fn14. Plates were coated with sub-domain 2 peptide and various dilutions of antibody were allowed to bind, bound antibody was detected with anti-mouse HRP and TMB substrate. The average of duplicate readings are plotted, error bars represent standard deviations. The ELISA was repeated to ensure consistent results. The vertical line at 5 ng/ml within the linear part of the curves is the point at which a comparison of the reactivity of each mAb was analyzed.
as §1
The ELISA was performed essentially according to the manufacturer's recommended protocol (Pierce). Briefly, peptide was coated onto wells (in duplicate) at 1-10 μg/ml for 2 hours at room temperature. Wells were washed in PBS/0.05% Tween 20/0.1% BSA 3 times and dilutions of each antibody were added in wash buffer for 1 hour with gentle agitation. After another three washes anti-mouse HRP-conjugated to horse radish peroxidase (HRP; Chemicon) was added at 1/1000 dilution for 1 hour shaking. […] Optical density at 450 nm was quantified using a Spectromax absorbance spectrophotometer.

The target in test [5] is T4, synthetic peptide hFn14 sub-domain 3 (human, cysteine pairing not given here).
T4 construct: also called sub-domain 3 peptide
T4 peptide: ASCRARPHSDFCLGK(Biotin)
The test can be described thus: ELISA on biotinylated sub-domain 3 peptide, mAb at 0.2 ug/ml. As to the method: An additional lysine residue was added to the C-terminus in order to attach a biotin moiety and to enable the peptides to bind to neutravidin coated plates (Pre-blocked; Pierce). For these experiments, a control peptide with a biotin at the C-terminus was used as a negative control and isotype control antibodies were also used.
as §2
The reactivity of CRCBT-06-001 CRCBT-06-002, CRCBT-06-003, CRCBT-06-004, CRCBT-06-005, CRCBT-06-006 and CRCBT-06-007 with sub-domain 3 was lower than for sub-domain 2, indicating this region may be a partial epitope for these antibodies. However, the differences in binding to this region could reveal subtle variations in the contact regions of the antibodies with hFn14. The order of binding from strongest to weakest was CRCBT-06-005, CRCBT-06-002, CRCBT-06-001, CRCBT-06-006, CRCBT-06-007 and ITEM-1. The relative binding of each antibody to sub-domain 3 at a single point in the linear region of the curves was measured at 0.2 µg/ml (FIG. 21C). […] This could indicate the epitope of ITEM-1 may differ slightly to the CRCBT antibodies based on weaker interaction with surface exposed residues in sub-domain 3.

The target of test [6] is T5, phage-displayed hFn14 extracellular domain (human, UniProt Q9NP84 28-77).
T5 construct: also called FN14 Ectodomain; FN14 Ecto
In words: phage ELISA, antibody on plate, 10-fold phage dilutions. The method, then: Each normalized preparation was 10-fold serially diluted and added in solution to the MAbs attached to the solid phase. ELISAs shown here were performed simultaneously with the same preparations of phage. Binding was detected using HRP-conjugated anti-M13 phage polyclonal IgG and TMB substrate. Optical density at 450 nm was quantified using a Spectramax spectrophotometer. Error bars for each dilution represent the standard deviation of duplicate assays. […] ELISAs were performed under similar conditions to those described for Panel A. Methods according to Epitope mapping using phage expressed Fn14—Method 1.
The wells of Maxisorp immunoplates (Nunc) were coated overnight at 4° C. with the target monoclonal antibodies or recombinant Tweak-Fc at a concentration of 2 μg/mL in PBS. MAb 5G8 was used as a negative control for ELISA plates coated with tested antibodies. Recombinant Fc alone was used as a negative control for ELISA plates coated with recombinant Tweak-Fc. […] 10-fold serial dilutions of phage were made using 5% skim milk/PBS solution in 2 ml-well microtiter plates and phage dilutions were added to the coated, blocked ELISA plates for 1 hr, with vigorous shaking at room temperature. Phage were subsequently removed from the wells and the ELISA plates were washed 4× with PBS/0.05% Tween 20. […]

Test [7] concerns the target T6, Histidine tagged hFn14 extracellular domain, bacterially expressed (human, UniProt Q9NP84 28-77).
T6 construct: also called recombinant Fn14; recombinant human Fn14; not shown: (His)6 tag from pET-15b
In words: ELISA on coated His-tagged protein.

Test [8] addresses T5, phage-displayed hFn14 extracellular …. The test can be described thus: phage ELISA, antibody on plate, 10-fold phage dilutions. The method, then: Each normalized preparation was 10-fold serially diluted and added in solution to the MAbs attached to the solid phase. All ELISAs shown were performed simultaneously with the same preparations of phage. Binding was detected using HRP-conjugated anti-M13 phage polyclonal IgG and TMB substrate. Optical density at 450 nm was quantified using a Spectramax spectrophotometer. Error bars for each dilution represent the standard deviation of duplicate assays. In this figure, reference to “FN14 Ecto” is a reference to the extracellular domain of hFn14. Methods according to Epitope mapping using phage expressed Fn14—Method 1.
The wells of Maxisorp immunoplates (Nunc) were coated overnight at 4° C. with the target monoclonal antibodies or recombinant Tweak-Fc at a concentration of 2 μg/mL in PBS. MAb 5G8 was used as a negative control for ELISA plates coated with tested antibodies. Recombinant Fc alone was used as a negative control for ELISA plates coated with recombinant Tweak-Fc. […] 10-fold serial dilutions of phage were made using 5% skim milk/PBS solution in 2 ml-well microtiter plates and phage dilutions were added to the coated, blocked ELISA plates for 1 hr, with vigorous shaking at room temperature. […] Optical density at 450 nm was quantified using a Spectramax absorbance spectrophotometer.
This is another data set of the same source.

In test [9] the target is T7, Histidine tagged mouse Fn14 extracellular domain (mouse, UniProt Q9CR75 28-80).
T7 construct: extracellular domain; also called mFn14; not shown: (His)6 tag from pET-15b
T7 sequence (looked up): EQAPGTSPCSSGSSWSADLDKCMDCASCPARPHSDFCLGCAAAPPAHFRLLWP
The test can be described thus: ELISA with purified His-tagged mouse Fn14; x axis 'Log (c)' without unit, µg/ml by the legend.

In test [10] the target is T8, His tagged hFn14 extracellular region mutant R56P (human, UniProt Q9NP84 28-77).
T8 construct: also called R56P mutant; not shown: (His)6 tag
The test can be described thus: ELISA with purified His-tagged hFn14 R56P; x axis 'Log (c)' without unit, µg/ml by the legend.

Test [11] addresses T9, His tagged hFn14 extracellular region mutant R56A (human, UniProt Q9NP84 28-77).
T9 construct: not shown: (His)6 tag
The test can be described thus: ELISA with purified His-tagged hFn14 R56A; x axis 'Log (c)' without unit, µg/ml by the legend.

The target in test [12] is T10, His tagged hFn14 extracellular region mutant R56K (human, UniProt Q9NP84 28-77).
T10 construct: not shown: (His)6 tag
The test can be described thus: ELISA with purified His-tagged hFn14 R56K; x axis 'Log (c)' without unit, µg/ml by the legend.

Test [13] deals with T11, synthetic peptide Sub-domain 2 Cys 3&6 ΔS (human, not fully specified; biotin on the added C-terminal lysine).
T11 construct: also called sub-domain 2 cys3&6ΔS mutant
T11 peptide: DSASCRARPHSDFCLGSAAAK
In words: peptide ELISA: biotinylated synthetic peptide on neutravidin plate, antibody titrated (legend: 0.1-0.0001 µg/ml; axis 'Log (c)'), anti-mouse HRP, TMB, OD 450 nm.

B1: CRCBT-06-007 (antibody, IgG2b, V domains shown)
VH: QVKLEESGGVLVQPGGSMKLSCIASGFSFSKYWMNWVRQSPEKGLEWVAEIRVKSNNYATHYAESVKGRFIISRDDSKSSVYLQMNNLRAEDTGIYYCTKSYADYFDYWGQGTTLTVSS
VL: DIVMTQSTASLAVSLGQRATISCRASQSVSTSSYSYMHWYQQKPGQPPKVLIKYASNLESGVPARFSGSGSGTDFTLNIHPVEEEDAATYYCQHSWEIPYTFGGGTKLEIKR
For the molecule B1, in the test with human Fn14 [1], the “NFκB-GFP reporter in HEK293T cells” value is 1 µg/mL. Besides, in the test with human Fn14 [2], the “% Agonist, IL-8 secretion by A375 cells” value is 16% and the “% Antagonist, IL-8 secretion by A375 cells” value stood at 89%. For the same molecule, in [3], the binding result is on record as “no binding”. For the same molecule, in [4], the “% decrease in binding compared to CRCBT-06-001 and CRCBT-06-002” value worked out at 48%. In test [5], the “% decrease in binding compared with CRCBT-06-005” value came out at 73%. In addition, the binding result in test [6] was “binds”.

B2: CRCBT-06-005 (antibody, IgG2b, V domains shown)
VH: QVQLQESGGGLVQPGGSMKLSCVASGFTFSYYWMNWVRQSPEQGLEWIAEIRLQSNDYPTHYAESVKGRFTISRDDSKNSVYLQMNNLRPEDTGIYYCACRYADYFDHWGQGTTLTVSS
VL: DIVLTQTTASLTVSLGQRATISCRASQSVSTSTYSYMHWYQQTPGQPPTVLIKYASSLESGVPTRFSGSGSGTDFTLNIHPVEEEDTATYYCQHSWEIPYTFGGGTKLEIKR
With B2, the “NFκB-GFP reporter in HEK293T cells” value in the test with human Fn14 [1] was 1 µg/mL. For the same molecule, the “% Agonist, IL-8 secretion by A375 cells” value in the test with human Fn14 [2] came to 26%. For the same molecule, the “% Antagonist, IL-8 secretion by A375 cells” value with human Fn14 [2] amounted to 92%. Also, the binding result in test [7] is listed as “binds”; in test [3], “no binding”; in [8], “binds”; in [9], “binds”; in [10] it was “binds”; in test [11], “binds”. Further, the binding result in test [12] and in test [13] was “binds” throughout. Further, in test [4], the “% decrease in binding compared to CRCBT-06-001 and CRCBT-06-002” value came out at 40%.

B3: CRCBT-06-006 (antibody, IgG2a, V domains shown)
VH: QVQLQESGGGLVQPGGSMKLSCVASGFTFSYYWMNWVRQSPEQGLEWIAEIRLQSNDYPTHYAESVKGRFTISRDDSKNSVYLQMNNLRPEDTGIYYCACRYADYFDHWGQGTTLTVSS
VL: DIVITQSPASLTVSLGQRATISCRASQSVSTSTYSYMHWYQQTPGQPPTVLIKYASSLESGVPTRFSGSGSGTDFTLNIHPVEEEDTATYYCQHSWEIPYTFGGGTKLEIKR
As to B3, the “NFκB-GFP reporter in HEK293T cells” value with human Fn14 [1] was 1 µg/mL. Moreover, the “% Agonist, IL-8 secretion by A375 cells” value with human Fn14 [2] worked out at 106%. The binding result in test [3] is “no binding”; in [8] it was “binds”. In test [4], the “% decrease in binding compared to CRCBT-06-001 and CRCBT-06-002” value came out at 76%. Besides, the “% decrease in binding compared with CRCBT-06-005” value in test [5] was 73%.
